This is an account of results in the supplement of paper PMC7877785.

± gives the uncertainty stated by the source.

A short description of this data set: self-splicing fitness, log relative to wild type (ln ratio); higher = more splicing; Tetrahymena group I intron in knt gene, E. coli kanamycin selection, DiMSum; sequences stand for … in CUCUCU…GGAGGGAAAAGUUAUCAGGCAUGCACCUGGUAGCUAGUCUUUAAACCAAUAGAUUGCAUCGGUUUAAAAGGCAAGACCGUCAAAUUGCGGGAAAGGGGUCAACAGCCGUUCAGUACCAAGUCUCAGGGGAAACUUUGAGAUGGCCUUGCAAAGGGUAUGGUAAUAAGCUGACGGACAUGGUCCUAACCACGCAGCCAAGUCCUAAGUCAACAGAUCUUCUGUUGAUAUGGAUGCAGUUCACAGACUAAAUGUCGGUCGGGGAAGAUGUAUUCUUCUCAUAAGAUAUAGUCGGACCUCUCCUUAAUGGGAGCUAGCGGAUGAAGUGAUGCAACACUGGAGCCGCUGGGAACUAAUUUGUAUGCGAAAGUAUAUUGAUUAGUUUUGGAGUACUCGUGGUCG
The gist of the method:
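Pooled colonies went to amplicon sequencing on an Illumina HiSeq 2500 after six replicate transformations. The plates were LB agar with 100 μg/mL carbenicillin, 50 μM IPTG and 0.2% rhamnose, with or without 25 μg/mL kanamycin, incubated overnight at 37°C or 30°C. The E. coli BL21(DE3) library had all eight P1ex-region intron nucleotides randomised, the intron placed in the knt kanamycin-resistance gene on pET-22b(+). DiMSum fitness is the error-weighted combination of replicate fold changes, kanamycin against none, normalised to wild type.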

As for GUCCAGCAAUAUUACGCAUC, the “self-splicing fitness (ln)” value runs as follows: (30 °C) -0.179 ± 0.089; (37 °C) 0.142 ± 0.12. With UUCUAGCAAUAUUACGCUAC, the “self-splicing fitness (ln)” value (30 °C) is -2.37 ± 0.38. For CUACAGCAAUAUUACGACUG, the “self-splicing fitness (ln)” value by setting is: (30 °C) -1.86 ± 0.087; (37 °C) -0.44 ± 0.1. For UGCCAGCAAUAUUACGAUUU the same measures were -4.1 ± 0.23 and -1.54 ± 0.14. With AAACAGCAAUAUUACGUGCU, the “self-splicing fitness (ln)” value is, setting by setting: (30 °C) -3.52 ± 0.2; (37 °C) -1.91 ± 0.14.

Turning to AGUCAGCAAUAUUACGAAUC, the “self-splicing fitness (ln)” value is, setting by setting: (30 °C) -0.727 ± 0.13; (37 °C) -0.18 ± 0.19. With AUGCAGCAAUAUUACGACAA, the “self-splicing fitness (ln)” value is, setting by setting: (30 °C) -0.348 ± 0.075; (37 °C) -0.366 ± 0.093. CUUCAGCAAUAUUACGGCUU: the “self-splicing fitness (ln)” value was -3.25 ± 0.16 (30 °C) and -3.2 ± 0.26 (37 °C). For GUCAAGCAAUAUUACGGCCU the same measures were -3.17 ± 0.22 and -1.34 ± 0.21. For CCCGAGCAAUAUUACGUGAA the same measures were -3.43 ± 0.37 and -1.87 ± 0.34. As to GUCAAGCAAUAUUACGCUCA, the “self-splicing fitness (ln)” value (30 °C) is -1.42 ± 0.11 and the “self-splicing fitness (ln)” value (37 °C) was -0.0833 ± 0.13. For AUUGAGCAAUAUUACGUUGU, the “self-splicing fitness (ln)” value runs as follows: (30 °C) -3.5 ± 0.14; (37 °C) -2.1 ± 0.16. Take UUAUAGCAAUAUUACGAGGU: the “self-splicing fitness (ln)” value (37 °C) is -2.14 ± 0.37. GGGCAGCAAUAUUACGGAGC: the “self-splicing fitness (ln)” value runs as follows: (30 °C) -2.15 ± 0.19; (37 °C) -1.12 ± 0.2. Turning to CAACAGCAAUAUUACGCCCC, the “self-splicing fitness (ln)” value (37 °C) was -0.283 ± 0.4.

For AGGAAGCAAUAUUACGUCCU, the “self-splicing fitness (ln)” value (30 °C) is -3.89 ± 0.16 and the “self-splicing fitness (ln)” value (37 °C) was -2.04 ± 0.15. GGCAAGCAAUAUUACGGAAG: the “self-splicing fitness (ln)” value runs as follows: (30 °C) -2.84 ± 0.1; (37 °C) -1.37 ± 0.1. Take AUGCAGCAAUAUUACGGUGU: the “self-splicing fitness (ln)” value reads like this: (30 °C) -3.52 ± 0.16; (37 °C) -1.63 ± 0.14. The corresponding values for CCCGAGCAAUAUUACGGCUC are -4.18 ± 0.34 and -2.21 ± 0.23. The corresponding values for UUUAAGCAAUAUUACGCAGC are -2.88 ± 0.22 and -0.593 ± 0.2. Consider ACAAAGCAAUAUUACGCCUC, for which the “self-splicing fitness (ln)” value (30 °C) was -2.8 ± 0.28 and the “self-splicing fitness (ln)” value (37 °C) was -2.2 ± 0.3. For CGCAAGCAAUAUUACGAGGU the same measures were -4.03 ± 0.23 and -1.82 ± 0.16.

Turning to GCCGAGCAAUAUUACGUGGU, the “self-splicing fitness (ln)” value is, setting by setting: (30 °C) -3.39 ± 0.14; (37 °C) -2.47 ± 0.16. CCCCAGCAAUAUUACGAUGA: the “self-splicing fitness (ln)” value by setting is: (30 °C) -3.16 ± 0.16; (37 °C) -3.01 ± 0.19. For the sequence AAACAGCAAUAUUACGACCA, the “self-splicing fitness (ln)” value is, setting by setting: (30 °C) -0.58 ± 0.061; (37 °C) -0.0342 ± 0.082.

For the sequence GGUGAGCAAUAUUACGGGUU, the “self-splicing fitness (ln)” value (37 °C) is -2.59 ± 0.36. Consider AUGGAGCAAUAUUACGUCGA, for which the “self-splicing fitness (ln)” value reads like this: (30 °C) -3.25 ± 0.3; (37 °C) -3.1 ± 0.43. The corresponding values for GGUUAGCAAUAUUACGUUGC are -2.41 ± 0.22 and -1.12 ± 0.42.

In the case of AAGCAGCAAUAUUACGACCG, the “self-splicing fitness (ln)” value (30 °C) was -1.19 ± 0.099 and the “self-splicing fitness (ln)” value (37 °C) is -0.552 ± 0.15. The corresponding values for UAAGAGCAAUAUUACGUAAA are -3.2 ± 0.37 and -1.89 ± 0.33. As to AAAUAGCAAUAUUACGGCAG, the “self-splicing fitness (ln)” value was -1.67 ± 0.15 (30 °C) and -0.465 ± 0.16 (37 °C). In the case of GUGUAGCAAUAUUACGUCUG, the “self-splicing fitness (ln)” value was -1.08 ± 0.17 (30 °C) and -1.74 ± 0.27 (37 °C). For CCCGAGCAAUAUUACGGGUU, the “self-splicing fitness (ln)” value is, setting by setting: (30 °C) -3.82 ± 0.16; (37 °C) -2.89 ± 0.18. For AGCGAGCAAUAUUACGACUC the same measures were -2.06 ± 0.21 and -1.3 ± 0.24.

As to CGACAGCAAUAUUACGGCGA, the “self-splicing fitness (ln)” value runs as follows: (30 °C) -1.65 ± 0.14; (37 °C) -0.523 ± 0.13. For CCCCAGCAAUAUUACGCUCU the same measures were -3.81 ± 0.22 and -2.47 ± 0.26. Consider UCCCAGCAAUAUUACGGUCG, for which the “self-splicing fitness (ln)” value runs as follows: (30 °C) -1.76 ± 0.071; (37 °C) -0.748 ± 0.078. Turning to CGGUAGCAAUAUUACGGCCA, the “self-splicing fitness (ln)” value is, setting by setting: (30 °C) 0.0804 ± 0.18; (37 °C) -0.151 ± 0.24. On to GGACAGCAAUAUUACGGAAA, for which the “self-splicing fitness (ln)” value was -2.04 ± 0.15 (30 °C) and -1.23 ± 0.14 (37 °C). The corresponding values for CAAGAGCAAUAUUACGAGCU are -2.04 ± 0.28 and -2.06 ± 0.37. For AGCAAGCAAUAUUACGUGUU the same measures were -3.17 ± 0.18 and -2.64 ± 0.17. The corresponding values for CCCCAGCAAUAUUACGAUCC are -3.27 ± 0.27 and -0.776 ± 0.32. For the sequence GAAUAGCAAUAUUACGGCGU, the “self-splicing fitness (ln)” value is -0.554 ± 0.15 (30 °C) and 0.178 ± 0.16 (37 °C). The corresponding values for UCGCAGCAAUAUUACGGCGC are -1.87 ± 0.12 and -0.971 ± 0.17.

In the case of GGAAAGCAAUAUUACGAGCG, the “self-splicing fitness (ln)” value was -0.482 ± 0.12 (30 °C) and 0.397 ± 0.12 (37 °C). For AGAGAGCAAUAUUACGUUCU the same measures were -3.19 ± 0.41 and -2.26 ± 0.45. For AGACAGCAAUAUUACGUCCC the same measures were -2.45 ± 0.18 and -0.529 ± 0.17. The corresponding values for UCUUAGCAAUAUUACGUGAA are -1.9 ± 0.2 and -2.82 ± 0.43. With CCAUAGCAAUAUUACGACUA, the “self-splicing fitness (ln)” value (37 °C) is -1.71 ± 0.37. As for CCGAAGCAAUAUUACGCACG, the “self-splicing fitness (ln)” value is -1.19 ± 0.074 (30 °C) and -0.509 ± 0.092 (37 °C). The corresponding values for UUGCAGCAAUAUUACGGGGG are -2.4 ± 0.17 and -2.23 ± 0.24. For GGCCAGCAAUAUUACGAAAC the same measures were -0.973 ± 0.079 and 0.00581 ± 0.1. For AAAGAGCAAUAUUACGUAGC the same measures were -4.35 ± 0.27 and -2.45 ± 0.24.

Regarding UUCGAGCAAUAUUACGUCUC, the “self-splicing fitness (ln)” value runs as follows: (30 °C) -4.02 ± 0.47; (37 °C) -2 ± 0.16. Consider GUGUAGCAAUAUUACGACGA, for which the “self-splicing fitness (ln)” value (30 °C) is -0.571 ± 0.14 and the “self-splicing fitness (ln)” value (37 °C) is -0.584 ± 0.16.

As to UGUCAGCAAUAUUACGUGGG, the “self-splicing fitness (ln)” value is -1.94 ± 0.073 (30 °C) and -0.96 ± 0.082 (37 °C).

CCAUAGCAAUAUUACGUACG: the “self-splicing fitness (ln)” value is, setting by setting: (30 °C) -0.658 ± 0.07; (37 °C) 0.351 ± 0.086. The corresponding values for ACGCAGCAAUAUUACGACAA are -1.61 ± 0.12 and -0.427 ± 0.097. In the case of UCACAGCAAUAUUACGGGGC, the “self-splicing fitness (ln)” value runs as follows: (30 °C) -4.05 ± 0.21; (37 °C) -2.4 ± 0.15. CCCUAGCAAUAUUACGUGUU: the “self-splicing fitness (ln)” value (30 °C) is -4.27 ± 0.18 and the “self-splicing fitness (ln)” value (37 °C) was -3.37 ± 0.17. With AUGUAGCAAUAUUACGACAA, the “self-splicing fitness (ln)” value was -0.201 ± 0.091 (30 °C) and 0.171 ± 0.11 (37 °C). Turning to UAGCAGCAAUAUUACGAGUU, the “self-splicing fitness (ln)” value reads like this: (30 °C) -3.47 ± 0.15; (37 °C) -1.98 ± 0.14. UGAAAGCAAUAUUACGAAAA: the “self-splicing fitness (ln)” value reads like this: (30 °C) -2.53 ± 0.23; (37 °C) -1.14 ± 0.16. For GUGCAGCAAUAUUACGCCGU the same measures were -2.77 ± 0.23 and -0.412 ± 0.18. Turning to UUCGAGCAAUAUUACGUUCG, the “self-splicing fitness (ln)” value runs as follows: (30 °C) -3.75 ± 0.24; (37 °C) -2.32 ± 0.27.

As for AGUUAGCAAUAUUACGGCUC, the “self-splicing fitness (ln)” value by setting is: (30 °C) -3.53 ± 0.26; (37 °C) -2.46 ± 0.34. The corresponding values for CCUGAGCAAUAUUACGGCCU are -2.68 ± 0.17 and -2.96 ± 0.3. The corresponding values for AAUCAGCAAUAUUACGGGUG are -0.238 ± 0.044 and 0.275 ± 0.06. For AUUAAGCAAUAUUACGACAA, the “self-splicing fitness (ln)” value was -0.618 ± 0.096 (30 °C) and -0.264 ± 0.11 (37 °C).

As for GGUGAGCAAUAUUACGUACU, the “self-splicing fitness (ln)” value runs as follows: (30 °C) -1.89 ± 0.14; (37 °C) -1.75 ± 0.17.

Turning to GGCGAGCAAUAUUACGACGA, the “self-splicing fitness (ln)” value runs as follows: (30 °C) -3.06 ± 0.32; (37 °C) -1.32 ± 0.26. Take UUAGAGCAAUAUUACGGGCU: the “self-splicing fitness (ln)” value (30 °C) was -2.53 ± 0.32. Take UCUUAGCAAUAUUACGAUUG: the “self-splicing fitness (ln)” value reads like this: (30 °C) -2.74 ± 0.22; (37 °C) -1.23 ± 0.18.

CGUGAGCAAUAUUACGAACU: the “self-splicing fitness (ln)” value runs as follows: (30 °C) -2.23 ± 0.3; (37 °C) -0.177 ± 0.29. The corresponding values for CUGCAGCAAUAUUACGUGGG are -4.18 ± 0.18 and -3 ± 0.13. Consider GAGAAGCAAUAUUACGAUAC, for which the “self-splicing fitness (ln)” value was -1.73 ± 0.13 (30 °C) and -0.221 ± 0.18 (37 °C).

Consider AUCCAGCAAUAUUACGACUC, for which the “self-splicing fitness (ln)” value runs as follows: (30 °C) -0.847 ± 0.071; (37 °C) 0.244 ± 0.1.
